Consider six molecules from US20220298244A1 (BEIJING MABWORKS BIOTECH, published 2022).

Like-named read-outs stand apart in the source and are kept apart here.

For assay [1], the target named is T1, monkey PD-L1 (ECD)-his (monkey, UniProt Q9NZQ7 19-238 (human entry)).
T1 construct: Bought protein; also called Cat #:90251-C08H, Sino Biological; not shown: His tag
In words: SPR (BIAcore 8K), monkey PD-L1 (ECD)-his coupled to CM5 chip, antibody injected, 1:1 Langmuir model. The procedure: (§1) These antibodies were also tested in SPR assays for their binding affinities to human and monkey PD-L1 with BIAcore™ 8K instrument (GE Life Sciences). Briefly, 100-200 response units (RU) of human PD-L1 (ECD)-his protein (Cat #:10084-H08H, Sino Biological, CN) or monkey PD-L1 (ECD)-his protein (Cat #:90251-008H, Sino Biological, CN) were coupled to CM5 biosensor chips (Cat #:BR-1005-30, GE Life Sciences, US), and the un-reacted groups were blocked with 1M ethanolamine Serially diluted antibodies at concentrations ranging from 0.3 μM to 10 μM were injected into the SPR running buffer (HBS-EP buffer, pH7.4, Cat #:BR-1006-69, GE Life Sciences, US) at 30 μL/minute. The binding affinities were calculated with the RUs of blank controls subtracted. The association rate (kₐ) and dissociation rate (kd) were calculated using the one-to-one Langmuir binding model (BIA Evaluation Software, GE Life Sciences), and the equilibrium dissociation constant KD was calculated as the kd/kₐ ratio.
Background: In SPR one partner is held on a chip, and binding of the other changes the refractive index at the surface.

Assay [2] concerns the target T2, human PD-L1 (ECD)-his (human, UniProt Q9NZQ7 19-238).
T2 construct: Bought protein; it is not tied to the bought construct by a sentence of its own; also called recombinant human PD-L1(ECD)-his; Cat #:10084-H08H, Sino Biological; not shown: His tag
In words: SPR (BIAcore 8K), human PD-L1 (ECD)-his coupled to CM5 chip, antibody injected, 1:1 Langmuir model. The procedure: as §1

Assay [3] addresses T3, monkey PD-L1 expressed on HEK293A cells (monkey (cynomolgus), UniProt Q9NZQ7 19-290 (human entry)).
T3 construct: Full-length cDNA expressed stably; also called HEK293A/monkey PD-L1 cells; HEK293A/monkey PD-L1
In words: FACS on HEK293A/monkey PD-L1 cells, serially diluted antibody (protocol of Example 4).

Another assay has as its target T4, mouse PD-L1(ECD)-his (mouse, UniProt Q9EP73 19-239).
T4 construct: Bought protein; also called mouse PD-L1-his; Cat #:50010-M08H, Sino Biological; not shown: His tag
Kind of assay: direct ELISA on coated mouse PD-L1(ECD)-his. The procedure: (§2) Species-cross-reactivities of the anti-PD-L1 mAbs to monkey or mouse PD-L1s were further assessed by direct ELISA. Briefly, 96-well ELISA plates were coated with 500 ng/ml monkey PD-L1 (ECD)-his (Cat #:90251-C08H, Sino Biological, CN) or mouse PD-L1(ECD)-his (Cat #:50010-M08H, Sino Biological, CN), 100 μl per well, then added and incubated with 100 μl serially diluted anti-PD-L1 antibodies (starting at 40 μg/ml). The plates were then added and incubated with Goat anti-human IgG conjugated with HRP (Cat #:31410, Thermal, US) for 1 hour at room temperature. Plates were developed with freshly prepared Ultra-TMB (Cat #:555214, BD, US) for 5 minutes at room temperature, and absorbance was read on a SpectraMax^R i3X reader (Molecular Devies, US) at 450 nm.

For assay [4], the target named is T5, human PD-L1 expressed on HEK293A cells (human, UniProt Q9NZQ7 19-290).
T5 construct: Full-length cDNA expressed stably; also called HEK293A/human PD-L1 cells; HEK293A/human PD-L1
In words: FACS blocking assay on HEK293A/human PD-L1 cells; blocked ligand PD1-hFc (protocol of Example 6). On the procedure:
(§3) Briefly, 10⁵ HEK293A/human PD-L1 cells in 100 μl culture medium were seeded onto each well of 96-well plates, to which added 50 μl serially diluted anti-PD-L1 antibodies. After incubated at 4° C. for 1 hour, the plates were washed 3 times with PBST. […] After incubation at 4° C. for 1 hour, the plates were washed with PBST for 3 times, and added with PE coupled Goat Anti-human IgG (Cat #:PAI-86078, Thermofisher, US) diluted 500×. After incubation at 4° C. for 1 hour, the plates were washed with PBST for 3 times and then cell fluorescence was monitored using a FACS machine (BD).

Assay [5] has as its target T6, mouse PD-L1 expressed on HEK293A cells (mouse, UniProt Q9EP73 19-290).
T6 construct: Full-length cDNA expressed stably; also called HEK293A/mouse PD-L1 cells; HEK293A/mouse PD-L1
In words: FACS on HEK293A/mouse PD-L1 cells, serially diluted antibody (protocol of Example 4). On the procedure: (§4) To determine whether the anti-PD-L1 antibodies bound to human, monkey or mouse PD-L1s expressed on HEK293A cells, a cell-based binding assay was performed by FACS using the HEK293A cells stably overexpressing human, monkey and mouse PD-L1s respectively as generated in Example 1. Briefly, 10⁵ HEK293A cells in 100 μl culture medium were seeded onto each well of the 96-well plates, to which added 50 μl serially diluted anti-PD-L1 antibodies. After incubated at 4° C. for 1 hour, plates were washed 3 times with PBST. Then, APC coupled Goat Anti-Mouse IgG (Cat #:405308, BioLegend, US) diluted 500× was added to the plates. After incubation at 4° C. for 1 hour, the plates were washed with PBS for 3 times and then cell fluorescence was monitored using a FACS machine (BD).

Assay [6] concerns the target T2, human PD-L1 (ECD)-his. Kind of assay: ELISA on coated human PD-L1 (ECD)-his. On the procedure:
The chimeric anti-PD-L1 antibodies were further characterized for their abilities of binding to human PD-L1, monkey PD-L1 and mouse PD-L1. Briefly, ELISA plates were coated with 500 ng/ml human PD-L1 (ECD)-his (Cat #:10084-H08H, Sino Biological, CN), 100 μl per well, at 4° C. overnight. The wells were blocked with 200 μl blocking buffer (PBS containing 1% BSA, 1% goat serum and 0.05% Tween 20) for 2 hours at room temperature, added and incubated with 100 μl serially diluted anti-PD-L1 antibodies (starting at 40 μg/ml) for 1 hour at room temperature. The plates were washed for 3 times with PBST (PBS+0.05% Tween 20), added with Goat-anti-human IgG-HRP (Cat #:31410, Thermal, US) diluted 5000×, and incubated for 1 hour at room temperature. Plates were developed with freshly prepared Ultra-TMB (Cat #:555214, BD, US) for 5 minutes at room temperature. Absorbance was read on a SpectraMax^R i3X reader (Molecular Devies, US) at 450 nm.
On the technique in general: In an ELISA, binding on a coated surface is turned into a signal by an enzyme label.

In assay [7] the target is T3, monkey PD-L1 expressed on HEK293A cells. Kind of assay: FACS on HEK293A/monkey PD-L1 cells, serially diluted antibody (protocol of Example 4). On the procedure: as §4
The source holds these as a separate data set.

Assay [8] has as its target T1, monkey PD-L1 (ECD)-his. In words: ELISA on coated monkey PD-L1 (ECD)-his. The procedure:
as §2

Assay [9] deals with T5, human PD-L1 expressed on HEK293A cells. In words: FACS on HEK293A/human PD-L1 cells, serially diluted antibody (protocol of Example 4). The procedure:
as §4

Assay [10] shares this target. Kind of assay: FACS on HEK293A/human PD-L1 cells. The procedure:
as §4

For assay [11], the target named is T3, monkey PD-L1 expressed on HEK293A cells. In words: FACS on HEK293A/monkey PD-L1 cells. The procedure:
as §4

For assay [12], the target named is T5, human PD-L1 expressed on HEK293A cells. Kind of assay: FACS blocking assay: antibody titrated on HEK293A/human PD-L1 cells, then PD1-hFc (200 µg/ml) detected. The procedure: as §3
Assay [13] addresses T6, mouse PD-L1 expressed on HEK293A cells. In words: FACS on HEK293A/mouse PD-L1 cells. The procedure: as §4
The target in assay [14] is T3, monkey PD-L1 expressed on HEK293A cells. In words: FACS on HEK293A/monkey PD-L1 cells, serially diluted antibody (protocol of Example 4). This is another data set of the same source.

T3 sequence (Q9NZQ7 other isoform, or with tags, fused parts or gaps limits assumed): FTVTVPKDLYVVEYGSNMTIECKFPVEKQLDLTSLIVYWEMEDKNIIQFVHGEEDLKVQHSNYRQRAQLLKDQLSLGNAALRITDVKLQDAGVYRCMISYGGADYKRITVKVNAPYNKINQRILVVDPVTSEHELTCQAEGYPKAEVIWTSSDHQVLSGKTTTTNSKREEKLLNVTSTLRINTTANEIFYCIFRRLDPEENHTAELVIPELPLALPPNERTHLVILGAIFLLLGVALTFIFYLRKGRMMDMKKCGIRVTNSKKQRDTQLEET
T1 sequence (Q9NZQ7 other isoform, or with tags, fused parts or gaps): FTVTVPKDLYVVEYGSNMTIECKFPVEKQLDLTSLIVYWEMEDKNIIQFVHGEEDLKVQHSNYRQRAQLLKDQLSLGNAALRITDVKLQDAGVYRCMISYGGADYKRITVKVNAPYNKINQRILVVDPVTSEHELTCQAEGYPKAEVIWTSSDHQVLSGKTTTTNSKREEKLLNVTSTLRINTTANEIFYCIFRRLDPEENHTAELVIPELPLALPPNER
T5 sequence (Q9NZQ7 19-290 limits assumed): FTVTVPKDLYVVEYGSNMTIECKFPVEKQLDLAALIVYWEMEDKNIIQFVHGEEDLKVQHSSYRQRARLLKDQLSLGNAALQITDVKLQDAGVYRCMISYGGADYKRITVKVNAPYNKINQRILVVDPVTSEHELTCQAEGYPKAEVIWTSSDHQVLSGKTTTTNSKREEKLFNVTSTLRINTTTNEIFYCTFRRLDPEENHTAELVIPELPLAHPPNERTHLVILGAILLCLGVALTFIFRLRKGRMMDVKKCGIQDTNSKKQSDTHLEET
T6 sequence (Q9EP73 19-290 limits assumed): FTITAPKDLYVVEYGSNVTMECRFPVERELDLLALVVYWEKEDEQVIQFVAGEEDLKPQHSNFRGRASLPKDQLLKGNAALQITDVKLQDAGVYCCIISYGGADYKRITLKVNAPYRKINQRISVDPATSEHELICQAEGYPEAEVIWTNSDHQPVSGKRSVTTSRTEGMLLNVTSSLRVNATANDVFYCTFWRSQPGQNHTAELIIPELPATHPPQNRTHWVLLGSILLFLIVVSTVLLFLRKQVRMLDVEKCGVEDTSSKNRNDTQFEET
T2 sequence (Q9NZQ7 19-238): as the sequence (Q9NZQ7 other isoform, or with tags, fused parts or gaps) above, with T33A, S34A, N62S, Q68R, R82Q, L173F, A185T, I192T, L215H counted along it
T4 sequence (Q9EP73 19-239): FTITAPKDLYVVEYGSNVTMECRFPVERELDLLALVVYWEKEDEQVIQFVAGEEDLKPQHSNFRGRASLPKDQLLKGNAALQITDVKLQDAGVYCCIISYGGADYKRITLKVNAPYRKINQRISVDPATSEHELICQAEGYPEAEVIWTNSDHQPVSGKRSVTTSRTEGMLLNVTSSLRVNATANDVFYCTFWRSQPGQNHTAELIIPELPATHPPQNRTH

B1: humanized antibody 3C2-VH6VL5 (antibody, human IgG1, kappa, N297A, V domains shown)
VH: QVQLVQSGAEVKKPGASVKVSCKASGYTFTDYHVNWVRQAPGQGLEWIGWIFPGSGRTFYTDKFKGRVTMTVDTSTSTVYMELSSLRSEDTAVYYCATDYGTSGYGLVYWGQGTTVTVSS
VL: DIQMTQSPSSLSASVGDRVTITCKASDRINNWLAWYQQKPGKAPKLLISGATSLETGVPSRFSGSGSGTDFTLTISSLQPEDIATYYCQQYWNIPFTFGQGTKVEIKR
notes: Human IgG1(N297A)/kappa
By Kd is commonly meant a measure of binding affinity in units of concentration. As for B1, the values for the Kd with monkey PD-L1 (ECD)-his [1] and with human PD-L1 (ECD)-his [2] were 0.369 nM and 0.433 nM, respectively. Also, in assay [3], the binding result is on record as “binds”.

B2: chimeric 3C2 antibody (antibody, human IgG1, kappa, N297A, V domains shown)
VH: QVQLNQSGPELMKAGTSVKISCKASGYSFTDYHVNWVKQRPGQGLEWIGWIFPGSGRTFYTDKFKGKATLTVDLSFTTAYIMLNSLTSEDSAVYFCATDYGTSGYGLVYWGQGTSVTVSS
VL: DIQMTQSSSYLSVSLGGRVTISCKASDRINNWLAWYQQKPGNAPRLLISGATSLETGVPSRFSGSGSGKDYTLSITSLQTEDVAVYYCQQYWNIPFTFGSGTKLEIKR
One may read the EC50 as the midpoint of the concentration-response curve. As usually defined, the EC50 (read off the curve) is the midpoint of the concentration-response curve. Consider B2, for which the binding result with mouse PD-L1(ECD)-his was “no binding (tested: starting at 40 µg/ml)”; in assay [5] it was “no binding (tested: LOG Con. about 4.6 (about 40000 ng/ml))”. In addition, in assay [4], the “IC50 (read off the curve)” value is approximately 0.2 µg/mL. Moreover, the EC50 with human PD-L1 (ECD)-his [6] was 0.0456 nM; with monkey PD-L1 (ECD)-his [8], 0.172 nM. In addition, the “EC50 (read off the curve)” value in assay [7] and in assay [9] was approximately 0.1 µg/mL in each case.

B3: mouse anti-PD-L1 monoclonal antibody 3C2 (antibody, mouse IgG1, V domains shown)
VH: QVQLNQSGPELMKAGTSVKISCKASGYSFTDYHVNWVKQRPGQGLEWIGWIFPGSGRTFYTDKFKGKATLTVDLSFTTAYIMLNSLTSEDSAVYFCATDYGTSGYGLVYWGQGTSVTVSS
VL: DIQMTQSSSYLSVSLGGRVTISCKASDRINNWLAWYQQKPGNAPRLLISGATSLETGVPSRFSGSGSGKDYTLSITSLQTEDVAVYYCQQYWNIPFTFGSGTKLEIK
notes: Purified from hybridoma; also called Mouse 3C2
Turning to B3, the EC50 in assay [10] turned out to be 1.75 nM; in assay [11] it was 1.25 nM; in assay [12], 0.0147 nM. In addition, in assay [13], the binding result is reported as “no binding”.

B4: chimeric 56E5 antibody (antibody, human IgG1, kappa, N297A, V domains shown)
VH: EVQLQESGPGLAKPSQTLSLTCSVTGYSITSDYWNWIRKFPGNKLEYMGYISYTGSTYYNPSLKSRISITRDTSKNQYYLQLNSVTTEDTATYYCARYRDWDVRAMDYWGQGTSVTVSS
VL: DIVMTQSPSSLTVTAGEKVTMNCKSSQSLLISGNQKNFLTWYQQKPGQPPKLLIYWASTRESGVPDRFTGSGSGTDFTLTISSVQAEDLAVYYCQNDFGFPFTFGSGTKLEIKR
In the case of B4, the binding result with mouse PD-L1(ECD)-his is on record as “no binding (tested: starting at 40 µg/ml)”; in [5] it was “no binding (tested: LOG Con. about 4.6 (about 40000 ng/ml))”. Further, in assay [4], the “IC50 (read off the curve)” value was approximately 0.03 µg/mL. The EC50 with human PD-L1 (ECD)-his [6] amounted to 0.348 nM; with monkey PD-L1 (ECD)-his [8] it was 2.05 nM. Moreover, the “EC50 (read off the curve)” value is approximately 0.04 µg/mL in assay [7] and approximately 0.05 µg/mL in assay [9].

B5: mouse anti-PD-L1 monoclonal antibody 56E5 (antibody, mouse IgG1, V domains shown)
VH: EVQLQESGPGLAKPSQTLSLTCSVTGYSITSDYWNWIRKFPGNKLEYMGYISYTGSTYYNPSLKSRISITRDTSKNQYYLQLNSVTTEDTATYYCARYRDWDVRAMDYWGQGTSVTVSS
VL: DIVMTQSPSSLTVTAGEKVTMNCKSSQSLLISGNQKNFLTWYQQKPGQPPKLLIYWASTRESGVPDRFTGSGSGTDFTLTISSVQAEDLAVYYCQNDFGFPFTFGSGTKLEIK
notes: Purified from hybridoma; also called Mouse 56E5
As to B5, the EC50 in assay [10] is 0.572 nM; in [11], 0.499 nM; in assay [12], 0.01 nM. The binding result in assay [13] was “no binding”.

B6: humanized antibody 56E5-VH5VL4 (antibody, human IgG1, kappa, N297A, V domains shown)
VH: QVQLQESGPGLVKPSQTLSLTCTVSGGSITSDYWNWIRQHPGNKLEYMGYISYTGSTYYNPSLKSRISITRDTSKNQFSLKLSSVTTADTAVYYCARYRDWDVRAMDYWGQGTTVTVSS
VL: DIVMTQSPDSLAVSLGEKVTMNCKSSQSLLISGNQKNFLTWYQQKPGQPPKLLIYWASTRESGVPDRFSGSGSGTDFTLTISSLQAEDLAVYYCQNDFGFPFTFGQGTKVEIKR
notes: Human IgG1(N297A)/kappa
In the case of B6, in assay [14], the binding result was “binds”. The dissociation constant Kd in the assay with monkey PD-L1 (ECD)-his [1] came to 0.00807 nM; in the assay with human PD-L1 (ECD)-his [2], 0.518 nM.
